Assay results taken from the DeepSol protein solubility set.

Assay: soluble on expression in E. coli; label from the status in PepcDB or PDB records

Row | Sequence | soluble on expression in E. coli
1 | MSVETILVVGGGISGITTAVEAAEVGYNTVLVEKKPYLGGRAAQLNKYFPKLCPPYCGLEMNFRRIKPNPKITVYTMTEVESVSGQEGNYSVRLKVSPRFVNEKCTACNACAEACPVERPNEFNFGMDKTKAAYLPHVLSYPMRYVIDRDACKDNSCDKCVKACKYNAIDLNMKPQTIEMKVGSIVYATGWNPYDATRMDNLGFGRVKNVITNMMMERLAAPNGPTGGKLLRPSDNKEVKKVVFVQCAGSRDENHLNYCSSICCMASLKQATYVRERIPDSQVVVAYIDLRAPGKYEEFLNKVEADANVKLVKGKVAKIEEDKATGGVILEFEDVEGGGKRHEHADMAVLATGMEPCVKANSMLSFEENGFINGGSAAGIYSTGVAKRPSDVTTAIQDATGMALKSIQSLVRSLEHHHHHH | not soluble
2 | STNAEAVTVTNKQIIFPDYVTGFPKESDLKITTTTIDLRLPEGSTSVLVKNLYLSCDPYMRICMGKPDPLSSSLVPPYKTGVPIIGLGVSKVIDSGHPDYKKGDLLWGLVGWEEYSVITLTTYSHFKIEHTDVPLSYYTGLLGMPGMTAYAGFYEVCSPKKGETVFVSAASGAVGQLVGQFAKLMGCYVVGSAGSKEKVYLLKTKFGFDDAFNYKEEKDFSAALKRYFPEGIDIYFENVGGKMLDAVLINMKLHGRVAVCGMISQYNLVDPEGVHNLPTILYKRIQLQGFGVCDFYDKYPKFLDFVLPYIREGKITYVEDIAEGFESGPSALLGLFEGKNVGKQLFVVARE | soluble
3 | MKYDILIAGVGGQGVVLASRILALSAMKAGFRVSTAETIGMSQREGSVSSHVRIGDEISGSLIPEGKADLLIGLEPAETIRNLPFLKEGGKIIVNSHAIPPASKPPGSPEYNPGALLSYLKTGFPDFFCLDFTRLAEEAGTYRAANVAMIGAAAGMGILPFSKEIVLALMEAEIPEKHRAVNRAAFEEAVKKIK | not soluble
4 | MAHHHHHHMYGGNNLRKFIPLVDIPLLGNKNNLLIFCGKVNFGSKKQKEKVDKETKKFRKFLKISNMKNNDEDEKYEGDINEGDMKKKMKGISGMTRIDYKIYDIKIQEINKNFENKIKKIFDTCLQIDFFNNISILKDKKNIKLCDVAQVVIKSSNLIYFYPYTINDIQKIIHNLKLKDNTWNPTVSNDGQYVILQIQPLSEDVKMKKKKEAKDLFEKIKNDIRNVRYKIRDDIIKNIEGDQWKIVERNKLDNYIKDKMKLIENVYEQSVKNY | not soluble
5 | MIEMTPDSSVYKALLESTKAIPWKINWQTMAFEYIGPQIEALLGWPQGSWKSVEDWATRMHPEDQEWVVNFCVKQSECGVDHEADYRALHRDGHYVWIRDVVHVVRDDSGEVEALIGFMFDISERKKTLEHHHHHH | soluble
6 | MVAMFLAVAVVLGLATSPTAEGGKATTEEQKLIEDVNASFRAAMATTANVPPADKYKTFEAAFTVSSKRNLADAVSKAPQLVPKLDEVYNAAYNAADHAAPEDKYEAFVLHFSEALRIIAGTPEVHAVKPGA | soluble
7 | MGSDKIHHHHHHMHHVVGVRFKKAGKIYYFSPGDLDIPRGESVIVETSRGVEYGNVVIEKKTVGDNDVVLPLKQVIRVATEKDKLAVQENKEAAKKAYDVCVQKIMEHQLDMKLVDVEYTFDRNKVLFYFTADGRIDFRELVKDLASVFRTRIELRQIGVRDEAKMLGGIGPCGRILCCSSFLGDFEPVSIKMAKDQNLSLNPAKISGLCGRLMCCLKYENDMYESAKQELPDLGETIDTPHGKGKVVGLNMLERLVQVHLFEGERVLEFSLEELLERGAVSAEATE | not soluble
8 | MSLQNTLGHRLVVGERQLLRFPAQQRSAAGDRLHAPSVYRRACIASLRSRQACYRHARRRCRQQEGAAMTGINRRELLRGMLASGVRAALPAGAAGALLPGSADAAPAAAKDATPLAPLGDASLAPRERLLFDFGWRFHPGHASDPSRDFEFGTFQRTFAKAGKDTATAAQLAFDDSNWQQVDLPHDWAVTLPFRPEPISASMTEEDPAAAHGYKALGTSFPENSVGWYRRMLQIPASDLGKRICLVFDGVFRDCVVFCNGHIVGRNASGYCGFEVDLSEVLDYGKPNLIVVRVDATLGEGWFYEGAGIYRHLWLQKTDPLHVPQHGVFVRSSVQGDTATAQLSTEVRNDGTASRQCVVQARITAPYGRIVAQAASAAVTVAPGQVQVVEQTVPLGQAALWSIDTPQLYTLTTSVHSAGVAVDALVTPFGVRSIAFDAQRGFLLNGAPLKLHGTNNHQDHAGVGTAIPDALHAWRLRQLKSMGCNAYRSSHNPATPELLALCDRLGMFVIEETRRMSTDPEAMAELETMVRRGRNHPSVILWSLGNEEPQQVTERGARIVTRMQQRVRQLDPTRPTTFAMDKGFGDGVGQVVDVVGFNYRTSQMDGFHAQYPNIPIYGSETGSTVSVRGNYQRDDTRGYTRAYDTDHPWWASTAEAWWSYVAQRPYIAGGFIWTGFDYRGEPTPYNRWPNVGSQFGVLDSCGFPKDNYWYYRAQWTSEPVLHLFPHWNWDGLLQPDDKGRVEVWCHSNLEAVELLVNGVSQGLQQVPAYGHVEWRVAYAPGVIEARGYRGGKLVLTERRETVGKPAAIRLSCDRSALRADAEDVAVVKVEIVDAQGRLVPNADHLVHLVLRGPARLIGVGNGDPSSHEDDKAPQRKAFNGLCMALLRSTRSSGQILLQATAPGLTSAALHLQAATSAEGHHHHHH | soluble
9 | MKPLKEYLLIPTQMRVFETQTQAIETSLSVNAQTSESSEAFTVKKDPHEIKVTGKKSGESELVYDLAGFPIKKTKVHVLPDLKVIPGGQSIGVKLHSVGVLVGFHQINTSEGKKSPGETAGIEAGDIIIEMNGQKIEKMNDVAPFIQKAGKTGESLDLLIKRDKQKIKTKLIPEKDEGEGKYRIGLYIRDSAAGIGTMTFYEPKTKKYGALGHVISDMDTKKPIVVENGEIVKSTVTSIEKGTGGNPGEKLARFSSERKTIGDINRNSPFGIFGTLHQPIQNNISDQALPVAFSTEVKKGPAEILTVIDDDKVEKFDIEIVSTTPQKFPATKGMVLKITDPRLLKETGGIVQGMSGSPIIQNGKVIGAVTHVFVNDPTSGYGVHIEWMLSEAGIDIYGKEKASLEHHHHHH | not soluble
10 | MASMTGGNNMGRGSMGAMDQEIGTVTDTKMDPRDFLQLLKINAEKAEKNLPLDQKRAGMEALCERFPRAEGVELTLTDLGGVPCIRQATDGAGAAHILYFHGGGYISGSPSTHLVLTTQLAKQSSATLWSLDYRLAPENPFPAAVDDCVAAYRALLKTAGSADRIIIAGDSAGGGLTTASMLKAKEDGLPMPAGLVMLSPFVDLTLSRWSNSNLADRDFLAEPDTLGEMSELYVGGEDRKNPLISPVYADLSGLPEMLIHVGSEEALLSDSTTLAERAGAAGVSVELKIWPDMPHVFQMYGKFVNAADISIKEICHWISARISKLAAALEHHHHHH | soluble
11 | MEHLRRFDRVAGAVTQAMREGRIGFSLQQVNAVDDTGEVLYSECLGRLVERDGAVRTSEEFTAFLEASGRVASFDRYMVGLAFEWLDCNPSGVLGCDISAGNIFDENTWSELYDLLSRNREMASRLVLEITECLPLATLPTAAEFIEGARALGYRIALDSFGTGHSTPESLLSVPVDIVKLDAFFIGRGQGVGKGKGFLHHLVGLASCVAPTVIIEGIETYGQLEAVKKAGATHVQGFLLSEPTLYPVYCGQPAPLPAAKPRSAGSRQLHS | not soluble
12 | MNSCDFRVFLQEFGTTVHLSLPGSVSEKERLLLKLLMQGMSVTEISQYRNRSAKTISHQKKQLFEKLGIQSDITFWRDIFFQYNPEIISATGSNSHRYINDNHYHHIVTPEAISLALENHEFKPWIQPVFCAQTGVLTGCEVLVRWEHPQTGIIPPDQFIPLAESSGLIVIMTRQLMKQTADILMPVKHLLPDNFHIGINVSAGCFLAAGFEKECLNLVNKLGNDKIKLVLELTERNPIPVTPEARAIFDSLHQHNITFALDDFGTGYATYRYLQAFPVDFIKIDKSFVQMASVDEISGHIVDNIVELARKPGLSIVAEGVETQEQADLMIGKGVHFLQGYLYSPPVPGNKFISEWVMKAGG | soluble
13 | MGGTSYLIVGNEGNILIDCPALDQTNLNFLRSHGGVRWLFLTHRGAIGRTAEIQQNYGCDILIQEQEAYLLPGLTVTTFTQEFAVTPTAKAIWTPGHSPGSSCLYYNHQGGVLFSGRHLLPNQKGEPVPLRTAKTFHWPRQIKSLQTILETLTPETLQYICPGANTGFLRGKRSIDTAYQRLASLDLKALLQTQPLEHHHHHH | not soluble
14 | MSDKFNQFINRVLSHEGGYANHPKDPGGETNWGITKRTAQANGYNGSMRAMTREQAISIYRKAFWERYRADQMPEAVAFQFFDACVNHGYGNAARMLQRAAGVPDDGVIGAVSLKAINSLPENDLLLRFNAERLVFYTKLGTFTSFGKGWVRRVAQNLIHASADNTD | soluble
15 | MAGDRKRGFIRPDEDYALIEPQRWGLPDYGDSKEKKAKQTAFNYDPSWVPNFDEPEEEQALELTEEQIELIKQGAYQEGLYQGQEAGFKQGYDKGKEEGLQAGHAEGLELGKAEGVSAGQEFIQQQVEVFMNLANQFAQPLELMNAQVEKQLVDMVLCLVKEVVHVEVQTNPQIILDTVKQSVEALPISGHPITLHLNPEDVAIIRSAYGEEDLDCRNWTLVSEPSLNRGDVQIEAGESSINYRMEERIKSVLHSFCGANRHQEGE | not soluble
16 | MGSDKIHHHHHHMPLLEIKNLTKIFTIGSIFSRTRIVAVDNVNFDINEAEIFTLAGESGCGKTTTAKIILGFEEPTSGEIIYKGRKIDRVHQNEKERRELLKEIQAVFQNPFSTFNPLRKVDRYFYETLFNLGIADTKKKAEEIIKEKLSAVGISFEEFSEKYPSEFSGGQLQRISIARALLTNPSLLVADEPVSMVDASLRMSIVNLFKDLKEQYGVSVLYITHDLTTAYYVSDRIAVMFRGNIVELGPAEKVLMEPKHPYTQLLRESVPEPDPKKKWDIRIKLSETEQAEYLRQGCKFAGRCPKAMDICRKEPPPYFEVDGVQVKCWLYR | not soluble
17 | DKDVLEVKLDKKEYKAGETATALIQSPYADAELYFAVIKDKPIYQQITKVQGSAPQIQFRVTPEMLPNAAVEAVLVRQGKPINQVEVGSLDNLVKIGFTPFKVNLEDKYLKLQVKPAQASLEPGAEETIQLEVKDNQGNPTKGQLTVMVVNEAVLQLSGY | not soluble
18 | MSLTNDVDAIQPIGLRRIDHIAQTMKFDEMQDWLLYYISTFEMDKSSIVNVNDPSGIILSQAIESPEGEVRLNLNASEDLNTFAGLFVEDKFGAGVQHIAFASDDIFESANLLRINGFKSLAIPSGYYEETKNKFNLNDTFIAQLKKQNILYDQDGNSEYFQIYSKNLFDGFFFEIVQRKNGYSGYGARNASVRLSSQTILQQAEGHHHHHH | not soluble
19 | MEYIKRKKTRKVRVGDIYIGGDAKITVQSMTNTDTRDVEATVNQIKMLEDIGCDIIRVAVVDQEAAEAIKEIKKSIKIPLVADIHFDYRLAISSMENGADKIRLNPGNIGDRERVRKVVEVAKSRQIPIRIGVNSGSLEKNVIEKYGGITPEAMVESALQHVRILEELDFYDIVISLKASSVPMTIAAYRLMSEKTDYPLHIGVTEAGTVFKGTIKSCAGLGCLLAEGIGDTIRVSLTGDPKEEVLVGHELLRALGIEKGGIELVSCPTCGRCQIDLIGIAEKVEERLEGLDKNIKVAIMGCAVNGPGEAKEADIGIAGGKGEVLLFKKGVIVRKIPQERAVEELMEEILRM | soluble
